B1: Bfr containing only BfrB subunits (24-mer BfrB) isolated from P. aeruginosa (natural protein)
chain: not shown
notes: BfrB, bacterioferritin subunit of P. aeruginosa PAO1, gene PA3531; subunit mass 18,552 Da by LC-MS; 24 copies hold for the homooligomer (SPR target, self rows); in the rows with m3 it stands for the BfrB subunits of the heterooligomeric 24-mer Bfr; also called homooligomeric BfrB; Bfr (0% FtnA, 21% O2); source: purified from P. aeruginosa PAO1 or ΔftnA cells (Q Sepharose, hydroxyapatite, Superdex …)
B2: bacterioferritin-associated ferredoxin (Bfd) (natural protein, P. aeruginosa, UniProt Q9HY80 1-73, looked up)
chain: MYVCLCQGVTDNQIRDAIYEGCCSYREVREATGVGTQCGKCACLAKQVVRETLNDLQSAQPVPAFGTTAFVAA
notes: Bfd, the bacterioferritin-associated [2Fe-2S] ferredoxin of P. aeruginosa, product of the bfd gene next to bfrB; Holds a [2Fe-2S] cluster
B3: FtnA subunit of P. aeruginosa (endogenous) (natural protein, P. aeruginosa PAO1 (endogenous), UniProt Q9HWF9 1-154, looked up)
chain: MQGHPEVIDYLNTLLTGELAARDQYFIHSRMYEDWGFSKLYERLNHEMEEETQHADALLRRILLLEGTPRMRPDDIHPGTTVPEMLEADLKLERHVRAALAKGIALCEQHKDFVSRDILKAQLADTEEDHAYWLEQQLGLIARMGLENYLQSQI
notes: FtnA, bacterial ferritin subunit of P. aeruginosa PAO1, gene PA4235 (formerly annotated bfrA); subunit mass 17,940 Da by LC-MS; Found in PAO1 only as a subunit of heterooligomeric Bfr; as 24-mer FtnA only in lysates of ΔbfrB cells cultured in 2% O2 or anaerobically; also called bacterial ferritin; formerly BfrA; source: purified from P. aeruginosa PAO1 as part of Bfr (Q Sepharose, hydroxyapatite, …)

Assays:
[1] = biological target: the molecule itself; assay: SEC; Superdex 200 Increase 10/300 GL, 100 mM phosphate buffer pH 7.6, 1 mM TCEP; pure Bfr from P. aeruginosa; elution volume compared with a ferritin standard
[2] = biological target: B1; assay: SPR; Biacore X100, 25 °C; Bfr or FtnArec immobilised on CM5 chips by amine coupling (100 nM in 10 mM sodium acetate pH 5.0); Bfd 0-40 μM flowed at 5 µL/min in PBS pH 7.4 with 1 mM TCEP; steady-state analysis, steric factor n set to 0.91; details: both partners purified
[3] = biological target: T1, heterooligomeric 24-mer Bfr containing ~45% FtnA, isolated from PAO1 cells cultured in 2% O2 (P. aeruginosa PAO1 (endogenous), UniProt Q9HY79 1-158; Q9HWF9 1-154); assay: as above; details: both partners purified
T1 construct: BfrB subunit of P. aeruginosa PAO1, gene PA3531; 18,552 Da; ~55% of the 24 subunits; FtnA subunit of P. aeruginosa PAO1, gene PA4235; 17,940 Da; ~45% of the 24 subunits; 24 subunits in all; a population of molecules of varying composition, on average ~45% FtnA; heme in the BfrB dimers; also called heterooligomeric Bfr; Bfr 45 (2% O2); source: purified from P. aeruginosa PAO1 cultured in 2% O2 (Q …)
T1 sequence (Q9HY79 whole entry, chain 1 of 2, one chain of several): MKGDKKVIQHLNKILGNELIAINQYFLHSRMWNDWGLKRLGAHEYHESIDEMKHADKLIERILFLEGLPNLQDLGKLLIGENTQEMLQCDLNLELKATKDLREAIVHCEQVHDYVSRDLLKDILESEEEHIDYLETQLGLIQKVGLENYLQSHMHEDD

[4] = biological target: the molecule itself; assay: native gel or EMSA; lysates of PAO1, ΔftnA and ΔbfrB cells (21%, 10%, 2% O2 or anaerobic) on native PAGE, stained for iron with Ferene S; BfrBrec and FtnArec as mobility standards; bands excised, digested with trypsin and identified by LC-MS

B1
stoichiometry N [1]: 24

B2
Kd [2]: 4.7 ± 0.8 µM | Kd [3]: 4.3 ± 0.5 µM

B3
stoichiometry N [4]: 24

From article PMC8945002, “Pseudomonas aeruginosa Bacterioferritin Is Assembled from FtnA and BfrB Subunits with the Relative Proportions Dependent on the Environmental Oxygen Availability” (Biomolecules, 2022)
